Reference: publication PMC5199209, “A Cascade of Thermophilic Enzymes As an Approach to the Synthesis of Modified Nucleotides” (Acta Naturae, 2016)

B1: TspRK (ribokinase from Thermus sp. 2.9) (Thermus sp. 2.9) (protein)
chain: MILVVGSLNMDLVLRVKRLPRPGETVLGEDYQTHPGGKGANQAVAIARLGGKVRMLGRVGEDPFGQALKSGLAQEGVDVAWVLETPGPSGTAFILVDPEGQNQIAVAPGANARLVPEDLPATAFQGVGVVLLQLEIPLETVVRAAALGRKAGARILLNAAPAHALPSEILQSVDLLLVNEVEAAQLTEASPPRTPEEALALARQLRGRAPQAQVVLTLGAQGAVWSGTEESHFPAFPVRAVDTTAAGDAFAGALALGLAEGQNMRAALRFANAAGALATTRPGAQPSLPFRDEVEALLFGR
notes: full-length, six-histidine tag (pET-23d+, NcoI/XhoI), codon-optimized synthetic gene; E. coli host

Key:
[1] = target: T1, TspRK (ribokinase from Thermus sp. 2.9) (Thermus sp. 2.9, UniProt A0A0B0SD75); experiment: HPLC of nucleotides (ATP consumption), nonlinear regression with substrate-inhibition equation; assay type: biochemical; conditions: 1 mM ATP, 5 mM MgCl2, 50 mM KCl, 10 mM KH2PO4, pH 8.0, 75 °C; substrate inhibition by binding of a second molecule; second site
T1 construct: gene rbsK; full-length, six-histidine tag (pET-23d+, NcoI/XhoI), codon-optimized synthetic gene; E. coli host
T1 sequence (A0A0B0SD75 1-301): B1 chain
Text: HPLC of nucleotides (ATP consumption), nonlinear regression with substrate-inhibition equation on TspRK (ribokinase from Thermus sp. 2.9)

[2] = substrate: Nc1ncnc2c1ncn2[C@@H]1O[C@H](COP(=O)(O)OP(=O)(O)OP(=O)(O)O)[C@@H](O)[C@H]1O; experiment: HPLC of nucleotides (ATP consumption), nonlinear regression, Michaelis-Menten; assay type: biochemical, Thermus sp. 2.9; conditions: 1 mM D-ribose, 5 mM MgCl2, 50 mM KCl, 10 mM KH2PO4, pH 8.0, 75 °C
Text: HPLC of nucleotides (ATP consumption), nonlinear regression, Michaelis-Menten on TspRK (ribokinase from Thermus sp. 2.9)

Molecule | Ki, μM [1] | Km [2] | Vmax [2] | kcat [2] | kcat/Km [2]
OC1OC[C@@H](O)[C@@H](O)[C@H]1O (stereo partly drawn) [D-ribose] | 1,700 ± 400 μM |  |  |  | 
B1 |  | 75 ± 11 µM | 13 µM/min/mg | 6.8 ± 0.7 s⁻¹ | 91000 M⁻¹ s⁻¹
